No end group written: not given here.
T1: His-tagged P3028 (human, also: His-tag, terminus and sequence not given here)
T1 construct: in solution at 0.5 ug/mL over the peptide cards; found with anti-His-tag antibody and rabbit anti-mouse peroxidase (rampo); also called PGE73; not shown: His-tag
T1 peptide: VFDEFKPLVEEPQNLIK


Target: T1, His-tagged P3028
Assay: PEPSCAN chip ELISA, His-P3028 in solution;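 also: score is the raw OD at 405 nm from peroxidase colour with ABTS, imaged by CCD camera before and after staining, with wells showing air bubbles set to zero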
Procedure: After washing, the peroxidase substrate 2,2′-azine-di-3-ethylbenzthiazoline sulfonate (ABTS) and 2 μL of 3% H2O2 were added. The binding capacity of the mAb was measured as a color development at 405 nm (optical density, OD405). The color development was quantified with a charge-coupled device (CCD)—camera and an image processing system.
The OD405-values obtained by a CCD-camera was considered as raw data values (“rampo values,” “rampo units,” or “rampo scores”). […] First the CCD-camera made a picture of the card before peroxidase coloring and then again a picture after the peroxidase coloring. […] These values were copied into an excel file and labeled as a raw data file. One follow-up manipulation was allowed. Sometimes a well can contain an air-bubble resulting in a false-positive value. If manual inspection of the cards detect an air-bubble the value are set to 0 for that well.

Row | Binder | RAMPO Score [rampo score]
1 | KKLDTFFVKLSLFTPR [SEQ ID NO 439] | 351
2 | KALDTFFVKLSLFTER [SEQ ID NO 485] | 309
3 | KQLDTFFVKLSLFTER [SEQ ID NO 440] | 350
4 | KKLDTFFVKLSYFTER [SEQ ID NO 475] | 320
5 | KKLDTHFVKLSLFTER [SEQ ID NO 466] | 332
6 | KSLDTFFVKLSLFTER [SEQ ID NO 510] | 281
7 | KKLDTFFVKLSLFTYR [SEQ ID NO 459] | 340
8 | KWLDTFFVKLSLFTER [SEQ ID NO 490] | 304
9 | KKLKTFFVKLSLFTER [SEQ ID NO 512] | 274
10 | KKLDTKFVKLSLFTER [SEQ ID NO 460] | 337
11 | KKLDTFFVKLWLFTER [SEQ ID NO 472] | 324
12 | KKLDTFFVKCSLFTER [SEQ ID NO 508] | 283
13 | KKLDTFFVHLSLFTER [SEQ ID NO 488] | 306
14 | KKLDTFFVKWSLFTER [SEQ ID NO 482] | 316
15 | KKLDTFFVKLSLFAER [SEQ ID NO 489] | 305
16 | KKLDDFFVKLSLFTER [SEQ ID NO 500] | 295
17 | KKLDTFFVKLSLFTKR [SEQ ID NO 471] | 324
18 | KKLDLFFVKLSLFTER [SEQ ID NO 484] | 311
19 | KKLDTFFVKLSLFTHR [SEQ ID NO 478] | 318
20 | KKLDTFFVKLSLFTQR [SEQ ID NO 450] | 344
21 | KKLDTFFVKLSPFTER [SEQ ID NO 497] | 297
22 | KKLDTFFVKLILFTER [SEQ ID NO 505] | 289
23 | SKLDTFFVKLSLFTER [SEQ ID NO 453] | 344
24 | KKLNTFFVKLSLFTER [SEQ ID NO 498] | 296

Row | Binder | RAMPO Score [rampo score]
25 | KKLDTFFVKLDLFTER [SEQ ID NO 474] | 322
26 | KKLDTFDVKLSLFTER [SEQ ID NO 492] | 301
27 | KKLDTFFVKHSLFTER [SEQ ID NO 502] | 293
28 | KKLDTFFVKLCLFTER [SEQ ID NO 457] | 341
29 | KKLDTWFVKLSLFTER [SEQ ID NO 444] | 348
30 | KILDTFFVKLSLFTER [SEQ ID NO 467] | 331
31 | KKLDTFFVKLSLYTER [SEQ ID NO 503] | 291
32 | KKLDTFFVKLPLFTER [SEQ ID NO 470] | 328
33 | KKLQTFFVKLSLFTER [SEQ ID NO 448] | 345
34 | KKLHTFFVKLSLFTER [SEQ ID NO 479] | 317
35 | KKLDTFFAKLSLFTER [SEQ ID NO 495] | 299
36 | KKLDTFNVKLSLFTER [SEQ ID NO 443] | 348
37 | KKLDTFFTKLSLFTER [SEQ ID NO 496] | 298
38 | KKYDTFFVKLSLFTER [SEQ ID NO 452] | 344
39 | KKLCTFFVKLSLFTER [SEQ ID NO 449] | 344
40 | KKLLTFFVKLSLFTER [SEQ ID NO 491] | 303
41 | KKLDTRFVKLSLFTER [SEQ ID NO 486] | 309
42 | KKLDTFFVQLSLFTER [SEQ ID NO 469] | 330
43 | WKLDTFFVKLSLFTER [SEQ ID NO 507] | 284
44 | KYLDTFFVKLSLFTER [SEQ ID NO 494] | 301
45 | KKLDTFFVSLSLFTER [SEQ ID NO 511] | 274
46 | KVLDTFFVKLSLFTER [SEQ ID NO 481] | 317
47 | KKWDTFFVKLSLFTER [SEQ ID NO 458] | 341
48 | YKLDTFFVKLSLFTER [SEQ ID NO 483] | 315

Row | Binder | RAMPO Score [rampo score]
49 | KKLDTFFVKKSLFTER [SEQ ID NO 506] | 285
50 | KKLDTFFVKLKLFTER [SEQ ID NO 473] | 323
51 | KKLSTFFVKLSLFTER [SEQ ID NO 451] | 344
52 | KKLRTFFVKLSLFTER [SEQ ID NO 480] | 317
53 | KKLDEFFVKLSLFTER [SEQ ID NO 456] | 341
54 | KKLDTFFVKLSLFQER [SEQ ID NO 493] | 301
55 | KKLDFFFVKLSLFTER [SEQ ID NO 504] | 290
56 | KKLDTCFVKLSLFTER [SEQ ID NO 462] | 335
57 | KTLDTFFVKLSLFTER [SEQ ID NO 468] | 331
58 | KKLDTFYVKLSLFTER [SEQ ID NO 463] | 334
59 | FKLDTFFVKLSLFTER [SEQ ID NO 465] | 332
60 | KKLDTFFVTLSLFTER [SEQ ID NO 445] | 347
61 | KKLDTFFVKLRLFTER [SEQ ID NO 464] | 333
62 | KKLDTFFVMLSLFTER [SEQ ID NO 509] | 283
63 | KKLDAFFVKLSLFTER [SEQ ID NO 447] | 346
64 | KKLDIFFVKLSLFTER [SEQ ID NO 501] | 293
65 | KDLDTFFVKLSLFTER [SEQ ID NO 461] | 335
66 | KELDTFFVKLSLFTER [SEQ ID NO 441] | 349
67 | KKLDTFFVKLALFTER [SEQ ID NO 477] | 318
68 | KKLDTGFVKLSLFTER [SEQ ID NO 446] | 347
69 | KLLDTFFVKLSLFTER [SEQ ID NO 454] | 343
70 | KKLDTFFVKLSCFTER [SEQ ID NO 455] | 342
71 | KCLDTFFVKLSLFTER [SEQ ID NO 499] | 295

Source: patent US20170298096A1 (CANIMGUIDE THERAPEUTICS, published 2017)
